# Data from article PMC2034677 (Molecular microbiology, 2002).
# B1: GST–endoE fusion protein (recombinant bacteriophage K1E endosialidase, wild type) (enzyme, UniProt P49714 1-706, looked up)
# chain: MIQRLGSSLVKFKSKIAGAIWRNLDDKLTEVVSLKDFGAKGDGKTNDQDAVNAAMASGKRIDGAGATYKVSSLPDMERFYNTRFVWERLAGQPLYYVSKGFINGELYKITDNPYYNAWPQDKAFVYENVIYAPYMGSDRHGVSRLHVSWVKSGDDGQTWSTPEWLTDMHPDYPTVNYHCMSMGVCRNRLFAMIETRTLAKNELTNCALWDRPMSRSLHLTGGITKAANQRYATIHVPDHGLFVGDFVNFSNSAVTGVSGDMKVATVIDKDNFTVLTPNQQTSDLNNAGKNWHMGTSFHKSPWRKTDLGLIPRVTEVHSFATIDNNGFVMGYHQGDVAPREVGLFYFPDAFNSPSNYVRRQIPSEYEPDAAEPCIKYYDGVLYLITRGTRGDRLGSSLHRSRDIGQTWESLRFPHNVHHTTLPFAKVGDDLIMFGSERAENEWEAGAPDDRYKASYPRTFYARLNVNNWNADDIEWVNITDQIYQGDIVNSSVGVGSVVVKDSFIYYIFGGENHFNPMTYGDNKDKDPFKGHGHPTDIYCYKMQIANDNRVSRKFTYGATPGQAIPTFMGTDGIRNIPAPLYFSDNIVTEDTKVGHLTLKASTSANIRSEMQMEGEYGFIGKSVPKDKPTGQRLIICGGEGTSSSSGAQITLHGSNSSNAKRITYNGNEHLFQGAPIMPAVDNQFAAGGPSNRFTTIYLGSDPVTTS
# Biological target: the molecule itself
# Assay: native gel or EMSA
protein,measurement,value
B1,stoichiometry N,3
